Laboratory results taken from patent publication US20220119549A1 (TAVOTEK BIOTHERAPEUTICS HONG KONG, published 2022).

What was measured:
recombinant human TNFα [1] = target: T1, recombinant human TNFα (human, UniProt P01375 77-233); experiment: ELISA, recombinant human TNFα coated at 1 µg/mL, after protease cleavage
T1 construct: Bought protein
Method: (§1) In this assay, 1 μg/mL recombinant human TNFα (R&D systems) was coated on an ELISA plate. Increasing concentrations of anti-TNFα shielded antibodies were applied on the plate and their binding to the recombinant human TNFα was detected by HRP-conjugated anti-human secondary antibody.

recombinant human TNFα [2] = target: T1, recombinant human TNFα; experiment: ELISA on human TNFα, after MMP2 cleavage
Method: as §1

T1 sequence (P01375 77-233 limits assumed): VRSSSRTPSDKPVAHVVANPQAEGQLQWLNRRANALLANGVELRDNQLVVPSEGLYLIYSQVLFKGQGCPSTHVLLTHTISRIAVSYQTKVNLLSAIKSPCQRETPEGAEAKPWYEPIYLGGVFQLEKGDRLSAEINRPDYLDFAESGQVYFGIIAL

B1: TAVO186187 after digestion by MMP2 (antibody)
heavy: EVQLVESGGGLVQPGGSLRLSCAASGFDFADYAMHWVRQAPGKGLEWVSAITWNGGHTDYADSVKGRFTISRDNSKNTLYLQMNSLRAEDTAVYYCAKVSYLSTASSLDYWGQGTLVTVSSASTKGPSVFPLAPSSKSTSGGTAALGCLVKDYFPEPVTVSWNSGALTSGVHTFPAVLQSSGLYSLSSVVTVPSSSLGTQTYICNVNHKPSNTKVDKKVEPKSCDKTHTCPPCPAPPAAGPSVFLFPPKPKDTLMISRTPEVTCVVVDVSHEDPEVKFNWYVDGVEVHNAKTKPREEQYNSTYRVVSVLTVLHQDWLNGKEYKCKVSNKALPAPIEKTISKAKGQPREPQVYTLPPSRDELTKNQVSLTCLVKGFYPSDIAVEWESNGQPENNYKTTPPVLDSDGSFLLYSKLTVDKSRWQQGNVFSCSVLHEALHSHYTQKSLSLSPGK
light: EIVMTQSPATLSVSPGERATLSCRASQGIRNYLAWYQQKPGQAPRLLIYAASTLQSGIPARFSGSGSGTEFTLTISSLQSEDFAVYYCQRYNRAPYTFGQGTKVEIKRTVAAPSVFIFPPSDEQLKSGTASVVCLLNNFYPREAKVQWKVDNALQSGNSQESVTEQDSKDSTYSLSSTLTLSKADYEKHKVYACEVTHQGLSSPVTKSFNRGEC
notes: also called digested shielded antibody; digested TAVO186187; not shown: remnant of the protease-cleavable linker left after cleavage
Question: Does B1 bind (recombinant human TNFα [1])?
Answer: binds

B2: TAVO196197 after digestion by MMP3 (antibody)
heavy: EVQLVESGGGLVQPGGSLRLSCAASGFDFADYAMHWVRQAPGKGLEWVSAITWNGGHTDYADSVKGRFTISRDNSKNTLYLQMNSLRAEDTAVYYCAKVSYLSTASSLDYWGQGTLVTVSSASTKGPSVFPLAPSSKSTSGGTAALGCLVKDYFPEPVTVSWNSGALTSGVHTFPAVLQSSGLYSLSSVVTVPSSSLGTQTYICNVNHKPSNTKVDKKVEPKSCDKTHTCPPCPAPPAAGPSVFLFPPKPKDTLMISRTPEVTCVVVDVSHEDPEVKFNWYVDGVEVHNAKTKPREEQYNSTYRVVSVLTVLHQDWLNGKEYKCKVSNKALPAPIEKTISKAKGQPREPQVYTLPPSRDELTKNQVSLTCLVKGFYPSDIAVEWESNGQPENNYKTTPPVLDSDGSFLLYSKLTVDKSRWQQGNVFSCSVLHEALHSHYTQKSLSLSPGK
light: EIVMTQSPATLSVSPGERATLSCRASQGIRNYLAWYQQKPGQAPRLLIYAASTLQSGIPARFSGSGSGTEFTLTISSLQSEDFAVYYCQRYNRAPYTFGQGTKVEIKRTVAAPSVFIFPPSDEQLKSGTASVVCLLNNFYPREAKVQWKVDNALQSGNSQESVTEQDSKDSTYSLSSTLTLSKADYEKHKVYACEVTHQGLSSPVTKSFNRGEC
notes: also called digested shielded antibody; digested TAVO196197; not shown: remnant of the protease-cleavable linker left after cleavage
Question: Does B2 bind (recombinant human TNFα [1])?
Answer: binds

B3: TAVO198199 after digestion by uPA (antibody)
heavy: EVQLVESGGGLVQPGGSLRLSCAASGFDFADYAMHWVRQAPGKGLEWVSAITWNGGHTDYADSVKGRFTISRDNSKNTLYLQMNSLRAEDTAVYYCAKVSYLSTASSLDYWGQGTLVTVSSASTKGPSVFPLAPSSKSTSGGTAALGCLVKDYFPEPVTVSWNSGALTSGVHTFPAVLQSSGLYSLSSVVTVPSSSLGTQTYICNVNHKPSNTKVDKKVEPKSCDKTHTCPPCPAPPAAGPSVFLFPPKPKDTLMISRTPEVTCVVVDVSHEDPEVKFNWYVDGVEVHNAKTKPREEQYNSTYRVVSVLTVLHQDWLNGKEYKCKVSNKALPAPIEKTISKAKGQPREPQVYTLPPSRDELTKNQVSLTCLVKGFYPSDIAVEWESNGQPENNYKTTPPVLDSDGSFLLYSKLTVDKSRWQQGNVFSCSVLHEALHSHYTQKSLSLSPGK
light: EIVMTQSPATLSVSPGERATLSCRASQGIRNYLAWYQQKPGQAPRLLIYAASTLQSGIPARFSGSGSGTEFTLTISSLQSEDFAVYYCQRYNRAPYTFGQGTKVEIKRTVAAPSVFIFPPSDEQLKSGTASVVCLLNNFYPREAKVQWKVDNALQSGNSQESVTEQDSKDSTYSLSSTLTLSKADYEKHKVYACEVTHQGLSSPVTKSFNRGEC
notes: also called digested shielded antibody; digested TAVO198199; not shown: remnant of the protease-cleavable linker left after cleavage
Question: Does B3 bind (recombinant human TNFα [1])?
Answer: binds

B4: TAVO194195 after digestion by MMP2 (antibody)
heavy: EVQLVESGGGLVQPGGSLRLSCAASGFDFADYAMHWVRQAPGKGLEWVSAITWNGGHTDYADSVKGRFTISRDNSKNTLYLQMNSLRAEDTAVYYCAKVSYLSTASSLDYWGQGTLVTVSSASTKGPSVFPLAPSSKSTSGGTAALGCLVKDYFPEPVTVSWNSGALTSGVHTFPAVLQSSGLYSLSSVVTVPSSSLGTQTYICNVNHKPSNTKVDKKVEPKSCDKTHTCPPCPAPPAAGPSVFLFPPKPKDTLMISRTPEVTCVVVDVSHEDPEVKFNWYVDGVEVHNAKTKPREEQYNSTYRVVSVLTVLHQDWLNGKEYKCKVSNKALPAPIEKTISKAKGQPREPQVYTLPPSRDELTKNQVSLTCLVKGFYPSDIAVEWESNGQPENNYKTTPPVLDSDGSFLLYSKLTVDKSRWQQGNVFSCSVLHEALHSHYTQKSLSLSPGK
light: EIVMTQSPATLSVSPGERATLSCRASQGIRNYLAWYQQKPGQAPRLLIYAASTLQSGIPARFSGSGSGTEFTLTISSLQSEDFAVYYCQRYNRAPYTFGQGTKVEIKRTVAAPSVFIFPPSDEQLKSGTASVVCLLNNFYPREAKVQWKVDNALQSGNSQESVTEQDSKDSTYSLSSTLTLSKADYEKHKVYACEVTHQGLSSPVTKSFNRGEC
notes: also called digested shielded antibody; digested TAVO194195; not shown: remnant of the protease-cleavable linker left after cleavage
Question: Does B4 bind (recombinant human TNFα [1])?
Answer: binds

B5: TAVO271272 after digestion by MMP2 (antibody)
heavy: EVQLVESGGGLVQPGGSLRLSCAASGFDFADYAMHWVRQAPGKGLEWVSAITWNGGHTDYADSVKGRFTISRDNSKNTLYLQMNSLRAEDTAVYYCAKVSYLSTASSLDYWGQGTLVTVSSASTKGPSVFPLAPSSKSTSGGTAALGCLVKDYFPEPVTVSWNSGALTSGVHTFPAVLQSSGLYSLSSVVTVPSSSLGTQTYICNVNHKPSNTKVDKKVEPKSCDKTHTCPPCPAPPAAGPSVFLFPPKPKDTLMISRTPEVTCVVVDVSHEDPEVKFNWYVDGVEVHNAKTKPREEQYNSTYRVVSVLTVLHQDWLNGKEYKCKVSNKALPAPIEKTISKAKGQPREPQVYTLPPSRDELTKNQVSLTCLVKGFYPSDIAVEWESNGQPENNYKTTPPVLDSDGSFLLYSKLTVDKSRWQQGNVFSCSVLHEALHSHYTQKSLSLSPGK
light: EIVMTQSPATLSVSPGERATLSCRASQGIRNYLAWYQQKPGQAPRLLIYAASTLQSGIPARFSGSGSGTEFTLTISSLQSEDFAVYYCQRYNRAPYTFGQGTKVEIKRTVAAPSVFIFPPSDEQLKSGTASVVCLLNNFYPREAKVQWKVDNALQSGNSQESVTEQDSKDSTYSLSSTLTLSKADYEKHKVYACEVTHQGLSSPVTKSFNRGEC
notes: the antibody part is that of TAVO167127 (EAC271/EAC272 are identical to EAC190/EAC191 but for the IGF2 mutations); not shown: remnant of the protease-cleavable linker left after cleavage
Question: Does B5 bind (recombinant human TNFα [2])?
Answer: binds

B6: TAVO190191 after digestion by MMP2 (antibody)
heavy: EVQLVESGGGLVQPGGSLRLSCAASGFDFADYAMHWVRQAPGKGLEWVSAITWNGGHTDYADSVKGRFTISRDNSKNTLYLQMNSLRAEDTAVYYCAKVSYLSTASSLDYWGQGTLVTVSSASTKGPSVFPLAPSSKSTSGGTAALGCLVKDYFPEPVTVSWNSGALTSGVHTFPAVLQSSGLYSLSSVVTVPSSSLGTQTYICNVNHKPSNTKVDKKVEPKSCDKTHTCPPCPAPPAAGPSVFLFPPKPKDTLMISRTPEVTCVVVDVSHEDPEVKFNWYVDGVEVHNAKTKPREEQYNSTYRVVSVLTVLHQDWLNGKEYKCKVSNKALPAPIEKTISKAKGQPREPQVYTLPPSRDELTKNQVSLTCLVKGFYPSDIAVEWESNGQPENNYKTTPPVLDSDGSFLLYSKLTVDKSRWQQGNVFSCSVLHEALHSHYTQKSLSLSPGK
light: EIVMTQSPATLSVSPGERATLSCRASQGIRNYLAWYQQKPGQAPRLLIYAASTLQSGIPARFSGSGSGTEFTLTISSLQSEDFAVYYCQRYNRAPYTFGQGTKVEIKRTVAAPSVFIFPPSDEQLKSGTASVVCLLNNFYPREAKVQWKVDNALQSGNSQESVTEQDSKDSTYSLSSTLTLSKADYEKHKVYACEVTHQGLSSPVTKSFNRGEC
notes: also called digested shielded antibody; digested TAVO190191; not shown: remnant of the protease-cleavable linker left after cleavage
Question: Does B6 bind (recombinant human TNFα [1])?
Answer: binds

B7: TAVO192193 after digestion by MMP2 (antibody)
heavy: EVQLVESGGGLVQPGGSLRLSCAASGFDFADYAMHWVRQAPGKGLEWVSAITWNGGHTDYADSVKGRFTISRDNSKNTLYLQMNSLRAEDTAVYYCAKVSYLSTASSLDYWGQGTLVTVSSASTKGPSVFPLAPSSKSTSGGTAALGCLVKDYFPEPVTVSWNSGALTSGVHTFPAVLQSSGLYSLSSVVTVPSSSLGTQTYICNVNHKPSNTKVDKKVEPKSCDKTHTCPPCPAPPAAGPSVFLFPPKPKDTLMISRTPEVTCVVVDVSHEDPEVKFNWYVDGVEVHNAKTKPREEQYNSTYRVVSVLTVLHQDWLNGKEYKCKVSNKALPAPIEKTISKAKGQPREPQVYTLPPSRDELTKNQVSLTCLVKGFYPSDIAVEWESNGQPENNYKTTPPVLDSDGSFLLYSKLTVDKSRWQQGNVFSCSVLHEALHSHYTQKSLSLSPGK
light: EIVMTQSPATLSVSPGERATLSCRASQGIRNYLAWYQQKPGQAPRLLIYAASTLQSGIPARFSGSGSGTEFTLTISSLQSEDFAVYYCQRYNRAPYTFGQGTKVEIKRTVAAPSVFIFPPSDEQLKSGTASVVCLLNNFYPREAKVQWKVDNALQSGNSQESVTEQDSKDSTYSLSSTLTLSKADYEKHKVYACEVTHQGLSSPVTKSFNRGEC
notes: also called digested shielded antibody; digested TAVO192193; not shown: remnant of the protease-cleavable linker left after cleavage
Question: Does B7 bind (recombinant human TNFα [1])?
Answer: binds

B8: TAVO188189 after digestion by MMP2 (antibody)
heavy: EVQLVESGGGLVQPGGSLRLSCAASGFDFADYAMHWVRQAPGKGLEWVSAITWNGGHTDYADSVKGRFTISRDNSKNTLYLQMNSLRAEDTAVYYCAKVSYLSTASSLDYWGQGTLVTVSSASTKGPSVFPLAPSSKSTSGGTAALGCLVKDYFPEPVTVSWNSGALTSGVHTFPAVLQSSGLYSLSSVVTVPSSSLGTQTYICNVNHKPSNTKVDKKVEPKSCDKTHTCPPCPAPPAAGPSVFLFPPKPKDTLMISRTPEVTCVVVDVSHEDPEVKFNWYVDGVEVHNAKTKPREEQYNSTYRVVSVLTVLHQDWLNGKEYKCKVSNKALPAPIEKTISKAKGQPREPQVYTLPPSRDELTKNQVSLTCLVKGFYPSDIAVEWESNGQPENNYKTTPPVLDSDGSFLLYSKLTVDKSRWQQGNVFSCSVLHEALHSHYTQKSLSLSPGK
light: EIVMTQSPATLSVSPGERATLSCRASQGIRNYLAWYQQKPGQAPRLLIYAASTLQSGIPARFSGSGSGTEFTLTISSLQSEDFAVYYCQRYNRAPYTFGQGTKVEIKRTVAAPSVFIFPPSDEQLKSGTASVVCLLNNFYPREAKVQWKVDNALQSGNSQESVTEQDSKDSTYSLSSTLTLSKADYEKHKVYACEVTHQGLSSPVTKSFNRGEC
notes: also called digested shielded antibody; digested TAVO188189; not shown: remnant of the protease-cleavable linker left after cleavage
Question: Does B8 bind (recombinant human TNFα [1])?
Answer: binds
